The assay deals with GST-PTN(60-110) fusion protein (human). The assay can be described thus: pull-down.
Sequence of GST-PTN(60-110) fusion protein (human) (P21246 60-110): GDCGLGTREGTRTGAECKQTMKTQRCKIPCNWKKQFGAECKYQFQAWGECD

Substance “Neuropilin-1 (NRP-1), endogenous (from UniProt O14786 22-923) (receptor)” yielded an NRP-1 pulled down, percent of that with GST-PTN(1-136) of 45%.
